We go through one substance from patent publication US20030143192A1.

The assay concerns the target human CCR3 (human) (UniProt P51677). The assay can be described thus: cell-based or functional assay.

Chain of human CCR3 (human) (P51677 whole entry): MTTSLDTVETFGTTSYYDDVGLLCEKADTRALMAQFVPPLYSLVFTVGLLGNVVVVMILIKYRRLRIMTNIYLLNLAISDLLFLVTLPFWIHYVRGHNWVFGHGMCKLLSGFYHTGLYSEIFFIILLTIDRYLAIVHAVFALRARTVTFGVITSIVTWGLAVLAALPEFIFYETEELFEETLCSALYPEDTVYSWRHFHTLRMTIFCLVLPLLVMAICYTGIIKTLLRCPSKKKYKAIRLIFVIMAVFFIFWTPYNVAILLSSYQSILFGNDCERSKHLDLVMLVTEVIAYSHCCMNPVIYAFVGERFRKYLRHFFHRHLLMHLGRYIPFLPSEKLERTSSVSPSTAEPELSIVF

For the substance “aminooxypentane (AOP)-RANTES (from UniProt P13501 24-91) (ligand)”, the reduction of 25 nM eotaxin-induced Ca^2+ flux in HOS-CCR3 cells by 100 nM antagonist amounted to 35%.
